Measurements taken from article PMC1865076.

B1: mim-A (dsDNA)
DNA 1: AGCGCTAAAAAACCGTTATAATGTGCAGAT
DNA 2: ATCTGCACATTATAACGGTTTTTTAGCGCT
B2: mim-C (dsDNA)
DNA 1: GTTGATTTCCATCTGTTATTTGAGCTAAG
DNA 2: CTTAGCTCAAATAACAGATGGAAATCAAC

What was measured:
c-Myb R2R3 = c-Myb R2R3 (chicken, UniProt P01103 87-193); test: EMSA
His6-Ovol1 [1] = target: T1, His6-Ovol1 (UniProt Q9WTJ2 1-267); test: competition
His6-Ovol1 [2] = target: T1, His6-Ovol1; test: EMSA

T1 sequence (Q9WTJ2 whole entry): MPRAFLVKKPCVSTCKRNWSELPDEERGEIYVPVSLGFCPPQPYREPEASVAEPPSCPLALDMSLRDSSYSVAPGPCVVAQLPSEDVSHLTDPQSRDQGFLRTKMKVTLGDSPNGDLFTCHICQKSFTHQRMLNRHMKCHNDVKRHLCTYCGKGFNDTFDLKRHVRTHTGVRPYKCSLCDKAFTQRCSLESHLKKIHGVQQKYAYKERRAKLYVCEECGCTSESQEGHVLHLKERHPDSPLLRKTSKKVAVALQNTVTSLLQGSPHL
Sequence of c-Myb R2R3 (P01103 87-193): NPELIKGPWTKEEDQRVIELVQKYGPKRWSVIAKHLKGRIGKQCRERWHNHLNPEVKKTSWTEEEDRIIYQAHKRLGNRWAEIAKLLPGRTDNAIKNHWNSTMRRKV

Binder | binding result (c-Myb R2R3) | binding result (His6-Ovol1 [1]) | binding result (His6-Ovol1 [2])
B1 | binds | binds | 
B2 |  |  | no binding
